Columns and labels:
[1] = tested on: human A549 tumor cells (non-small cell lung cancer); assay: A549 NSCLC xenograft tumor growth, REGN421 with cisplatin (Example 2); type: in vivo, mouse; details: REGN421 2 mg/kg sc (6 mg/kg total dose)
Protocol: The effect of REGN421 in combination with cisplatin on tumor growth was evaluated on tumors implanted in humanized Dll4 SCID mice, as described above. Each mouse was implanted subcutaneously (sc) with 5×10^6 human A549 tumor cells (non-small cell lung cancer or “NSCLC”). After the tumors were established in the mice (tumor size of 100-150 mm^3, approximately 29 days after implantation), tumors were measured, randomized and treated with hFc, REGN421, cisplatin or combination of REGN421 and cisplatin. A total of 36 mice were divided into 6 groups (n=6 per cohort). The first group was treated sc with hFc at 2 mg/kg; the second group was treated sc with REGN421 at 2 mg/kg; the third and fourth groups were treated ip with cisplatin at 2.5 and 4.5 mg/kg, respectively; the fifth group was treated sc with REGN421 at 2 mg/kg and ip with cisplatin at 2.5 mg/kg; and the sixth group was treated sc with REGN421 at 2 mg/kg and ip with cisplatin at 4.5 mg/kg. REGN421 was administered every 3-4 days starting on day 29 and mice received three doses total. Cisplatin was administered every 24 hours starting on day 29 and mice received two doses total.
To assess the effects of REGN421 and cisplatin as single agents or in combination we measured tumor size (volume), beginning three days before the initial REGN421 treatment, on the day of each agent treatment (days 29, 30, 33, 36) and thereafter every 3-4 days until tumors reached ˜600 mm^3 in size. In vivo tumor size was calculated using the formula (length×width^2)/2.

[2] = tested on: human HCT116 tumor cells (CRC); assay: HCT116 colorectal xenograft tumor growth, REGN421 with 5-FU (Example 5); type: in vivo, mouse; details: REGN421 2 mg/kg sc (6 mg/kg total dose)
Protocol: The effect of anti-Dll4 Ab (REGN421) in combination with 5-FU on tumor growth was evaluated on tumors implanted in humanized Dll4 SCID mice. Each mouse was implanted subcutaneously (sc) with 5×10^6 human HCT116 tumor cells (CRC). After the tumors were established in the mice (tumor size of ˜150 mm^3, 22 days after implantation), tumors were measured and randomized. The mice were then treated with hFc, REGN421, 5-FU or combination of REGN421 and 5-FU. A total of 30 mice were divided into 6 groups (n=5 per cohort). The first group was treated sc with hFc at 2 mg/kg; the second group was treated sc with REGN421 at 2 mg/kg; the third and fourth groups were treated ip with 5-FU at 15 and 25 mg/kg, respectively; the fifth group was treated sc with REGN421 at 2 mg/kg and ip with 5-FU at 15 mg/kg; and the sixth group was treated sc with REGN421 at 2 mg/kg and ip with 5-FU at 25 mg/kg. REGN421 was administered every 3-4 days starting on day 22 and mice received three doses total. 5-FU was administered every 3-4 days starting on day 22 and mice received three doses total.
(§1) To assess the effects of REGN421 and 5-FU as single agents or in combination, the changes in tumor size (volume) were measured, beginning three days before the initial REGN421 treatment, and then on the day of each agent treatment (days 22, 26, 29) and thereafter every 3-4 days until tumors reach ˜600 mm^3 in size. In vivo tumor size is calculated using the formula (length×width^2)/2 (FIG. 3 and Table 5).

human HCT116 tumor cells = assay: HCT116 xenograft tumor growth, REGN421 with irinotecan (Example 6); type: in vivo, mouse; details: REGN421 2 mg/kg sc (6 mg/kg total dose)
Protocol: Each mouse was implanted subcutaneously (sc) with 5×10^6 human HCT116 tumor cells. After the tumors were established in the mice (tumor size of ˜150 mm^3, 15 days after implantation), tumors were measured and randomized. The mice were then treated with hFc, REGN421, irinotecan or combination of REGN421 and irinotecan. A total of 30 mice were divided into 6 groups (n=5 per cohort). The first group was treated sc with hFc at 2 mg/kg; the second group was treated sc with REGN421 at 2 mg/kg; the third and fourth groups were treated ip with irinotecan at 7.5 and 25 mg/kg, respectively; the fifth group was treated sc with REGN421 at 2 mg/kg and ip with irinotecan at 7.5 mg/kg; and the sixth group was treated sc with REGN421 at 2 mg/kg and ip with irinotecan at 25 mg/kg. REGN421 was administered every 3-4 days starting on day 15 and mice received three doses total. Irinotecan was administered every 3-4 days starting on day 15 and mice received three doses total.
as §1, with “irinotecan” for “5-FU”, “combination treatments,” for “combination,”, “are” for “were”, “starting” for “beginning”, “15, 19, 22)” for “22, 26, 29)”, “(length×width^2)/2.” for “(length×width^2)/2 (FIG. 3 and Table 5).”

[3] = Phase I pharmacokinetics of REGN421, single 30-min IV infusion, ELISA (Example 8); type: in vivo, human; details: mean
Protocol: REGN421 is currently being studied in a first-in-human trial. The primary objective of the study is to determine the recommended dose of REGN421 for future efficacy trials. The secondary objectives are to characterize the drug safety profile, its pharmacokinetics, immunogenicity, and pharmacodynamics, as well as preliminary evidence of efficacy. In this study, anti-hDll4 antibody REGN 421 is administered intravenously every 3 weeks to patients whose cancer has progressed on conventional therapy. The study design follows standard methodology for dose escalation and definition of dose-limiting toxicity. To date, 7 patients have been treated at 0.25 mg/kg/dose every three weeks, and 6 patients have been treated at 0.50 mg/kg/dose every three weeks. For the pharmacokinetic study, blood samples were taken at pre-dose, 0 hour, and post-dose 1, 2, 4 and 8 hours on Day 1, followed by Days 2, 3, 4, 8 and 15 of Cycle 1; and pre-dose, 0 hour on Day 1 of Cycles≧2, and post-treatment follow-up on Days 15, 30 and 60. Plasma/serum levels of REGN421 in the samples are measured by ELISA with an upper limit of quantification of 2.5 μg/mL and a lower limit of quantification of 0.039 μg/mL in the undiluted serum sample. The study is ongoing with the intent to administer higher doses, defined in the protocol as 1, 2, 4, and 7 mg/kg/dose.
The currently available data showing plasma pharmacokinetic parameters following single 30-min. Cmax: Maximum serum concentration of the drug; Tlast: Time to the last quantifiable concentration of the drug; Clast: Last quantifiable concentration of the drug; AUClast: Area under curve up to the last concentration of the drug; AUC: Total area under the curve (i.e., drug exposure); t1/2Z: Terminal half life; Vss: Volume of distribution at steady state; CL: Drug clearance rate. Values are: mean, (CV %), and [range] (a: median [range]).

B1: REGN421: anti-hDll4 antibody comprising HCVR/LCVR combination of SEQ ID NO:116/118 (antibody, V domains shown)
VH: QVQLVESGGGVVQPGRSLRLSCAASGFTFSSYGMHWVRQAPGKGLEWVSFLWYDGTNKNYVESVKGRFTISRDNSKNMLYLEMNSLRAEDTAVYYCARDHDFRSGYEGWFDPWGQGTLVTVSS
VL: EIVLTQSPATLSLSPGERATLSCRASQSVSSYLAWYQQKPGQAPRLLIYDASNRATGIPARFSGSGSGTDFTLTISSLEPEDFAVYYCQHRSNWPPTFGGGTKVEIK
For B1, which TGD [1] is on record?
The TGD was 8 days.

What about the TGD [2] of the same molecule?
Its TGD is 6 days.

What about the TGD (human HCT116 tumor cells) of the same molecule?
The TGD was 9 days.

And the AUC ([3]; 0.25 mg/kg IV, n = 7 patients)?
Its AUC is 489 µg·h/mL.

And the AUClast ([3]; 0.25 mg/kg IV, n = 7 patients)?
Its AUClast is 452 µg·h/mL.

And the AUC ([3]; 0.5 mg/kg IV, n = 2 patients)?
The AUC was 963 µg·h/mL.

And the AUClast ([3]; 0.5 mg/kg IV, n = 2 patients)?
The AUClast was 759 µg·h/mL.

— patent US8840886B2, “Method of treating cancer with DLL4 antagonist and chemotherapeutic agent” (Regeneron Pharmaceuticals, Inc., priority 2009, dated 2014)
